Results: patent US20260055190A1, “ANTIBODIES FOR PLATELET FCyRIIA AND RELATED METHODS OF USE” (UNIVERSITY OF VERMONT AND STATE AGRICULTURAL COLLEGE, priority 2022, published 2026)
Entries after “also recorded” stand apart in the source; their conditions may differ.

Key:
[1] = test system: FcγRIIa; test: Phosphorylation of FcγRIIa during platelet activation (immunoprecipitation, Western blot with anti-phosphotyrosine 4G10); format: cell-based, human
Description: FIGS. 1A-1E are western blots and graphs showing that platelet activation results in FcγRIIa being phosphorylated: Platelets (2×10^8 in 0.5 ml) from low-risk subjects isolated with the use of gel filtration were exposed to no agonist (FIG. 1E) or to thrombin (50 nM) (FIG. 1A), convulxin (10 ng/ml) (FIG. 1B), ADP (25 μM) (FIG. 1C), and PAF (100 nM) (FIG. 1D) for selected intervals before preparation of platelet lysates. FcγRIIa was separated by immunoprecipitation and Western blots were probed with an antiphosphotyrosine antibody (4G10), stripped, and re-probed with anti-FcγRIIa to confirm equal loading (data not shown). Fluorescence intensity of bands was quantified with the use of a Li-Cor system. Results (n=3-5 for each condition) are peak intensity that is not altered by adjusting the contrast of the image or the size of the area of interest, and were compared with those obtained when no agonist was used (Student's t test, *p<0.05, **p<0.01). […]
Immunoprecipitation was performed overnight at 4° C. with the use of goat anti-CD32A/C (Santa Cruz Biotechnology, Santa Cruz, Calif.) or a mouse anti-phosphotyrosine conjugated with magnetic beads (4G10, Millipore, Billerica, Mass.). […] Bands were detected with the use of use of a Li-Cor Odyssey Infrared Imaging system (Li-Cor Biosciences, Lincoln, Nebr.) or chemiluminescence (Amersham/General Electric Healthcare, Piscataway, N.J.).

[2] = test system: platelets
[3] = target: FcγRIIa on non-fixed human platelets (also as present in platelet lysates) (human) (UniProt P12318); test: cell-based or functional assay
[4] = test system: human stem cell derived Megakaryocytes; test: IFNγ effect on FcγRIIa expression by human stem cell derived megakaryocytes; format: cell-based; conditions: IFNγ treatment, FIG. 11
Description: The graphs on the lower aspect of the figure show evidence of differentiation of the cells into megakaryocytes.

[5] = test system: Megakaryocyte cell line; test: IFNγ effect on FcγRIIa expression by megakaryocyte cell line; format: cell-based; conditions: IFNγ treatment, FIG. 10
Description: The graphs on the lower aspect of the figure show evidence of differentiation of the stem cells into megakaryocytes.

[6] = target: T1, FcγRIIa on formaldehyde-fixed human platelets (human, UniProt P12318 34-317, exposed to formaldehyde fixative (residues not stated)); test: fluorochrome labeled antibody on fixed platelets
T1 construct: Same receptor as m3, but on platelets fixed before exposure to the antibody; also called FcγRIIa on fixed platelets
T1 sequence: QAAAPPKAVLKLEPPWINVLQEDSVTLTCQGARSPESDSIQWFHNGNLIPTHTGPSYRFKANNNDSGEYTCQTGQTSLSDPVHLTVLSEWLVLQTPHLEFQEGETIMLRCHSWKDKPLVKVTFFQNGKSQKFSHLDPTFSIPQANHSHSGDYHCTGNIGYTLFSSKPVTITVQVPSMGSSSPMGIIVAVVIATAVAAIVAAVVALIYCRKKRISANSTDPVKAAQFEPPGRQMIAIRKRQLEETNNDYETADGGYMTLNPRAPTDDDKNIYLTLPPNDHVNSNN

[7] = target: T2, FcγRIIa on non-fixed human platelets (also as present in platelet lysates) (human, UniProt P12318 34-317); test: immunoprecipitation with platelet lysates
T2 construct: Endogenous receptor of platelets from human subjects; In immunoprecipitation experiments the receptor came from platelet lysates; also called platelet FcγRIIa; CD32
T2 sequence: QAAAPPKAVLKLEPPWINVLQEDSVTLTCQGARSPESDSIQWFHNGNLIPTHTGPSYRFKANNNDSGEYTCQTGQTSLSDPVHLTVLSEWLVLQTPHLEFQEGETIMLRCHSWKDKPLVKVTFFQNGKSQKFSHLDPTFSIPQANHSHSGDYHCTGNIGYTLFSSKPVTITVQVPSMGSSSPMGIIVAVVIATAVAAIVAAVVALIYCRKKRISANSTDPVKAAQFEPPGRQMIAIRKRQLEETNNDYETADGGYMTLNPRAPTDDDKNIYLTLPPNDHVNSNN

[8] = target: T1, FcγRIIa on formaldehyde-fixed human …; test: platelets of two subjects, fixed (FIG. 29)
[9] = target: T2, FcγRIIa on non-fixed human platelets …; test: platelets of two subjects, non-fixed (FIG. 29)
[10] = target: T3, FcγRIIa on platelets (Homo sapiens, UniProt P12318); test: Flow cytometry binding/quantification of FcγRIIa on fixed and non-fixed platelets; conditions: FIG. 29
T3 construct: endogenous in cells; host or cells: platelets from subjects' blood samples, formaldehyde-fixed or non-fixed
T3 sequence (P12318 34-317): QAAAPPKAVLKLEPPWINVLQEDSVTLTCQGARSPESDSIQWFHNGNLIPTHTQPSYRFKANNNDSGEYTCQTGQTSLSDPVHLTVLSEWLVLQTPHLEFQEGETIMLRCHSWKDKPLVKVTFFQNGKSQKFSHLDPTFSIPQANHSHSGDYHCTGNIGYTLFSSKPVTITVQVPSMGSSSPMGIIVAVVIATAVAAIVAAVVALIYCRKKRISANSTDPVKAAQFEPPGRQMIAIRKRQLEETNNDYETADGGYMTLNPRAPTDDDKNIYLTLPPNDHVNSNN
Description: One objective was to identify an antibody that was capable of quantifying FcγRIIa on the surface of platelets that were fixed, similar to quantification of FcγRIIa on non-fixed platelets. To make this assessment, selected antibodies were fluorochrome labeled. An objective was to identify a clone that could quantify FcγRIIa on the surface of fixed platelets within 10% of the quantification of previously-known antibodies on non-fixed platelets. Based on these experiments, two clones were identified, they produced the antibodies FcYRIIa-5G1 and FcYRIIa-11F9 described above.
Lysis of red blood cells can also be performed by the addition of 3% acetic acid (120 μl) to 5 μl of blood. • Incubate for 15 minutes • Add 800 μl PBS • Centrifuge for 2 minutes at 1,200 g • Decant liquid • Re-suspend platelet pellet in 1,000 μl PBS • Centrifuge for 2 minutes at 1,200 g • Decant liquid • Re-suspend platelet pellet in 1,000 μl PBS • Centrifuge for 2 minutes at 1,200 g • Re-suspend platelet pellet in 800 μl PBS with 0.2% BSA and store platelets at room temperature for at least 1 hour before assay (blocking step) • Assay tube final volume=35 μl, adding: • 5 μl of re-suspended platelet • 0.5 μg of 5G1-PE antibody • 2 μl of CD42bPECy5 (Becton Dickinson) • QS with PBS/BSA 0.2% • Incubate antibodies and platelets for 1 hours at room temperature • Dilute with 500 μl of PBS • Analyze with flow cytometry
• Analyze platelet samples using template 032522 FCquant 5G1R-PE 375V_T. Set acquisition volume to 200 ul and run samples at 200 ul/min. count 10,000 events in platelet gate (CD42b positive events). • Platelets are first gated on a FSC SSC plot • A second gate for CD42b PECY5 positive events is created • A histogram plot gated on the CD42b positive events is created. A gate is set to the right of a non-immune IgG control. The x-mean of the histogram gate positive for 5G1R-PE binding is reported • Assay tube for IgG control, adding: • 5 μl of re-suspended platelet • 2 μl of IgG-PE • 2 μl of CD42bPECy5 (Becton Dickinson) • 26 μl PBS/BSA 0.2% […]

Molecule: Nc1ncnc2c1ncn2[C@@H]1O[C@H](COP(=O)(O)OP(=O)(O)O)[C@@H](O)[C@H]1O [ADP, adenosine diphosphate]
- time after exposure at which phosphorylation of FcγRIIa was greatest ([1]; platelets from low-risk subjects, thrombin 50 nM, convulxin 10 ng/ml, ADP 25 μM, PAF 100 nM): 3 to 5 min

Molecule: CC(C)(C)n1nc(-c2ccc(Cl)cc2)c2c(N)ncnc21 [PP2]
- phosphorylation of FcγRIIa during platelet activation ([1]; IV.3 Fab 100 μg/ml, PP2 20 μM): prevented phosphorylation of FcγRIIa

Molecule: CCCCS(=O)(=O)N[C@@H](Cc1ccc(OCCCCC2CCNCC2)cc1)C(=O)O [tirofiban]
- agonist-induced activation of platelets ([2]; agonists thrombin, convulxin, ADP, PAF, PAC-1 binding or P-selectin, IV.3 100 μg/ml, PP2 20 μM, tirofiban 0.5 μg/ml): did not attenuate the activation of platelets
- activation of platelets caused by coagulation Factor XIII ([2]; summary in words): abolished
- amplification of platelet activation induced by fibrinogen ([2]; summary in words): not by tirofiban
- binding of PAC-1 to platelets ([2]; tirofiban 0.5 μg/ml): blocked completely the binding of PAC-1 to platelets; also recorded: abolished binding of PAC-1 to platelets
- agonist-induced surface expression of P-selectin ([2]; tirofiban, n=3 subjects, FIG. 5D): did not attenuate agonist-induced P-selectin expression

Molecule: Fab fragment of IV.3
- ADP induced activation of platelets with added fibrinogen after pretreatment with IV.3 (100 µg/ml), fold induction [3]: 0.9 fold
- ADP-induced activation of platelets with added Factor XIII after pretreatment with IV.3 (100 µg/ml), fold induction [3]: 0.7 fold

Molecule: IFNγ: cytokine that increases FcγRIIa expression by megakaryocytes
- expression of FcγRIIa by human stem cell derived Megakaryocytes [4]: increases the expression of FcγRIIa
- expression of FcγRIIa by Megakaryocyte cell line [5]: increases the expression of FcγRIIa

Molecule: coagulation Factor XIII (from UniProt P00488 2-732) (enzyme)
- ADP-induced activation of platelets (surface expression of P-selectin), fold induction [3]: 3.9 fold

Molecule: fibrinogen (from UniProt P02671 20-629; P02675 31-491; P02679 27-437)
- ADP induced activation of platelets (surface expression of P-selectin), fold induction [3]: 1.5 fold

B1: Antibody FcYRIIa-11F9 (antibody, V domains shown)
VH: EVQLQESGPELVKPGASVRISCKASGYTFTNSYMHWVKQRPGQGLEWIGWIYPENINTYYNEKFKGKATLTADRSSSTAYMQLNSLASEDSAVYFCARFYYGFGYWGQGTTLTVSS
VL: DIVMTQSHKFMSTSVGDRVIITCKASQNVISAVAWYQQKPGHSPKLLIYWASTRHTGVPDRFTGSGSGTDFTLTINSVQSEDLADYFCQQYGRYPYTFAGGTKLEIK
notes: Monoclonal antibody from a mouse hybridoma; also called 11F9 antibody
- binding result [6]: binds
- binding result [7]: binds

B2: Antibody FcYRIIa-5G1 (antibody, V domains shown)
VH: EVQLQESGPELVKPGASVKISCKASGYTFTTYYIHWVKQRPGQGLEWIGWIFPGSSNTFYNEKFKGKATLTADTSAITAYMQLNSLTSEDSAVYFCSRYYYDYGYWGQGTLVTVSA
VL: ENVLTQSPAIMSASPGEKVTMTCSASSSVRYMQWYQQKSNTSPKLWIYDTSKLASGVPGRFSGSGSGNSYFLTISSMEAEDVATYHCFQGSGYPLTFGGGTKLEIK
notes: Monoclonal antibody from a mouse hybridoma; Fluorochrome (phycoerythrin) labelled for flow cytometry; also called 5G1 antibody; 5G1-PE
- binding result [8]: binds
- binding result [9]: binds

B3: FcYRIIa-5G1: monoclonal antibody binding FcγRIIa; heavy chain SEQ ID NO 4, light chain SEQ ID NO 9 (antibody, V domains shown)
VH: EVQLQESGPELVKPGASVKISCKASGYTFTTYYIHWVKQRPGQGLEWIGWIFPGSSNTFYNEKFKGKATLTADTSAITAYMQLNSLTSEDSAVYFCSRYYYDYGYWGQGTLVTVSA
VL: ENVLTQSPAIMSASPGEKVTMTCSASSSVRYMQWYQQKSNTSPKLWIYDTSKLASGVPGRFSGSGSGNSYFLTISSMEAEDVATYHCFQGSGYPLTFGGGTKLEIK
- binding to FcγRIIa on fixed platelets compared with non-fixed platelets [10]: binds to a greater extent to FcγRIIa on fixed platelets
- binding to FcγRIIa on fixed platelets ([10]; fixed platelets, two subjects): binds at a higher level on fixed platelets
- binding to FcγRIIa on non-fixed platelets versus commercially available antibody FLI8.26 ([10]; non-fixed platelets, two subjects): binds to a lesser extent than the commercially available antibody
